According to publication PMC6346709:
Residue numbers refer to the chain shown, from its start. Names may count otherwise.

T1: Recombinant CbpF from Fn ATCC 25586 (group I), passenger domain, Q8RIS0
T1 chain: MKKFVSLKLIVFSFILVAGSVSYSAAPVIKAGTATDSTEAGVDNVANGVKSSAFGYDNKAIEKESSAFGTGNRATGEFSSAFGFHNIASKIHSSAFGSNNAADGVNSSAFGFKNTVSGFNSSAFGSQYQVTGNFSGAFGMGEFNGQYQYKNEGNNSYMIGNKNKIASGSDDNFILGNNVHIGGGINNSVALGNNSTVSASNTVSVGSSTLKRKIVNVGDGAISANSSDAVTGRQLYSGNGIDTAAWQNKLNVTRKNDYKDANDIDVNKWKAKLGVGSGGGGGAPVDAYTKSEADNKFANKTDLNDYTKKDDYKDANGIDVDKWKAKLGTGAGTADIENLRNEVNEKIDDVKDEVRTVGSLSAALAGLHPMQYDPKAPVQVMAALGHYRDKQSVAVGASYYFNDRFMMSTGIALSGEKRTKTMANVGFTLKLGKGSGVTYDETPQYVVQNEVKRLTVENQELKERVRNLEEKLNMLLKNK

B1: CEACAM1-Fc, comprising all extracellular CEACAM1 domains fused to the human immunoglobulin G (IgG) Fc domain, P13688 I91A (protein)
chain: QLTTESMPFNVAEGKEVLLLVHNLPQQLFGYSWYKGERVDGNRQIVGYAIGTQQATPGPANSGRETIYPNASLLIQNVTQNDTGFYTLQVAKSDLVNEEATGQFHVYPELPKPSISSNNSNPVEDKDAVAFTCEPETQDTTYLWWINNQSLPVSPRLQLSNGNRTLTLLSVTRNDTGPYECEIQNPVSANRSDPVTLNVTYGPDTPTISPSDTYYRPGANLSLSCYAASNPPAQYSWLINGTFQQSTQELFIPNITVNNSGSYTCHANNSVTGCNRTTVKTIIVTELSPVVAKPQIKASKTTVTGDKDSVNLTCSTNDTGISIRWFFKNQSLPSSERMKLSQGNTTLSINPVKREDAGTYWCEVFNPISKNQSDPIMLNVNYNALPQENGLSPG
B2: CEACAM1-3-Fc (containing N-A1-B1 domains) V96A (protein)
chain: QLTTESMPFNVAEGKEVLLLVHNLPQQLFGYSWYKGERVDGNRQIVGYAIGTQQATPGPANSGRETIYPNASLLIQNVTQNDTGFYTLQVIKSDLANEEATGQFHVYPELPKPSISSNNSNPVEDKDAVAFTCEPETQDTTYLWWINNQSLPVSPRLQLSNGNRTLTLLSVTRNDTGPYECEIQNPVSANRSDPVTLNVTYGPDTPTISPSDTYYRPGANLSLSCYAASNPPAQYSWLINGTFQQSTQELFIPNITVNNSGSYTCHANNSVTGCNRTTVKTIIVTGK
B3: CEACAM1-3-Fc (containing N-A1-B1 domains) Q89N (protein)
chain: B2 chain with Q89N, A96V

Columns and labels:
[1] = target: Recombinant CbpF from clinical strain 2B3 (group II), passenger domain, pOPINE construct; assay: ELISA; details: 3 pmol CbpF; 15 fmol CEACAM1-3-Fc mutant; developed for 5 hrs at 37°C; parent: est. 0.66; read off a plot
[2] = target: Recombinant CbpF from Fn ATCC 25586 (group I), passenger domain (UniProt Q8RIS0); assay: ELISA; details: 3 pmol CbpF; 15 fmol CEACAM1-3-Fc mutant; developed for 5 hrs at 37°C; parent: est. 0.43; read off a plot
[3] = target: CEACAM binding protein of Fusobacterium (CbpF) of F. vincentii ATCC 49256, FNV1729 (Fusobacterium vincentii ATCC 49256 (endogenous)); assay: migration on SDS-PAGE and Western blot; native CbpF in lysate or co-precipitate runs at ~150 kDa against ~50 kDa predicted for the mature chain; Fn lysate gives a ~50 kDa band after 70% formic acid
[4] = target: Recombinant CbpF from Fn ATCC 25586 (group I), passenger domain (Fusobacterium nucleatum ATCC 25586) (UniProt Q8RIS0); assay: ELISA; purified CbpFI and CbpFII (3 pmol) immobilised on plates; 1 pmol of each CEACAM-Fc variant; anti-human secondary antibody
[5] = target: CEACAM binding protein of Fusobacterium (CbpF) of F. nucleatum ATCC 25586, FN1499 (Fusobacterium nucleatum ATCC 25586 (endogenous)); assay: migration on SDS-PAGE and Western blot; native CbpF in lysate or co-precipitate runs at ~150 kDa against ~50 kDa predicted for the mature chain; Fn lysate gives a ~50 kDa band after 70% formic acid
[6] = target: Recombinant CbpF from clinical isolate 2B3 (protein of Figure 8, dot blot and Figure S9); assay: ELISA; details: chain shown with the change; read at 2 µg.ml-1 of the Fc construct (highest point of the titration); recombinant CbpF immobilised; parent: est. 1.9; read off a plot
[7] = target: T1, Recombinant CbpF from Fn ATCC 25586 …; assay: ELISA; details: chain shown with the change; 3 pmol CbpF; 15 fmol CEACAM1-3-Fc mutant; developed for 5 hrs at 37°C; parent: est. 0.43; read off a plot

Molecule | response [1] [A405] | response [2] [A405] | also measured
CEACAM1-3-Fc (containing N-A1-B1 domains) Y34S | 0.012 | 0.017 | 
CEACAM1-3-Fc (containing N-A1-B1 domains) F29Y | 0.082 | 0.017 | 
CEACAM1-3-Fc (containing N-A1-B1 domains) Q44E | 0.017 | 0.02 | 
CEACAM1-3-Fc (containing N-A1-B1 domains) I91A | 0.01 | 0.02 | 
CEACAM binding protein of Fusobacterium (CbpF) of F. vincentii ATCC 49256, FNV1729 (natural protein) |  |  | stoichiometry N [3]: 3
CEACAM1-3-Fc (containing N-A1-B1 domains) Y34F | 0.013 | 0.017 | 
CEACAM1-Fc, comprising all extracellular CEACAM1 domains fused to the human immunoglobulin G (IgG) Fc domain (from UniProt P13688 35-428) (Fc fusion) |  |  | binding relative to group II CbpF [4]: 75%
CEACAM1-3-Fc (containing N-A1-B1 domains) Y34A | 0.043 | 0.021 | 
CEACAM1-3-Fc (containing N-A1-B1 domains) I91L | 0.006 | 0.022 | 
CEACAM1-3-Fc (containing N-A1-B1 domains) F29G | 0.012 | 0.012 | 
CEACAM1-3-Fc (containing N-A1-B1 domains) F29I | 0.017 | 0.012 | 
CEACAM1-3-Fc (containing N-A1-B1 domains) Q44R | 0.013 | 0.02 | 
CEA-Fc (from UniProt P06731 35-685) (Fc fusion) |  |  | binding relative to group II CbpF [4]: 50%
CEACAM binding protein of Fusobacterium (CbpF) of F. nucleatum ATCC 25586, FN1499 (natural protein) |  |  | stoichiometry N [5]: 3
CEACAM1-3-Fc (containing N-A1-B1 domains) G47L | 0.008 | 0.007 | 
CEACAM1-3-Fc (containing N-A1-B1 domains) F29R | 0.013 | 0.013 | 
CEACAM1-3-Fc (containing N-A1-B1 domains) V96A | 0.87 |  | 
CEACAM1-3-Fc (containing N-A1-B1 domains) I91G | 0.017 | 0.066 | 
CEACAM1-3-Fc (containing N-A1-B1 domains) Q44L | 0.021 | 0.027 | 
CEACAM1-3-Fc (containing N-A1-B1 domains) Q89N | 0.17 |  | 
B1 |  |  | response [6]: 0 A405
B2 |  |  | response [7]: 0.4 A405
B3 |  |  | response [7]: 0.024 A405
